From patent US20160002344A1 (ONCOMED PHARMACEUTICALS, published 2016) come the findings set out here.

Sequences and labels used below:
B1: recombinant human RSPO4-Fc fusion protein (Fc fusion)
chain: LNRRKKQVGTGLGGNCTGCIICSEENGCSTCQQRLFLFIRREGIRQYGKCLHDCPPGYFGIRGQEVNRCKKCGATCESCFSQDFCIRCKRQFYLYKGKCLPTCPPGTLAHQNTRECQGECELGPWGGWSPCTHNGKTCGSAWGLESRVREAGRAGHEEAATCQVLSESRKCPIQRPCPGERSPGQKKGRKDRRPRKDRKLDRRLDVRPRQPGLQP
notes: not shown: human Fc region
B2: humanized anti-RSPO2 antibody h130M23-H1L2 (antibody, human IgG2, kappa, V domains shown)
VH: EVQLVESGGGLVKPGGSLRLSCAASGFTFSSYAMSWVRQAPGKGLEWVSSISSGGSTYYPDSVKGRFTISRDNAKNSLYLQMNSLRAEDTAVYYCARGGDPGVYNGDYEDAMDYWGQGTTVTVSS
VL: DIQMTQSPSSLSASVGDRVTITCKASQDVSSAVAWYQQKPGKAPKLLIYWASTRHTGVPSRFSGSGSGTDFTLTISSVQAEDFATYYCQQHYSTPWTFGQGTKVEIKR
notes: also called 130M23-H1 with 130M23-L2
B3: humanized anti-RSPO2 antibody h130M23-H1L6 (antibody, human IgG2, kappa, V domains shown)
VH: B2 VH
VL: B2 VL with V78L, A80P
B4: recombinant human RSPO2-Fc fusion protein (Fc fusion)
chain: QGNRWRRSKRASYVSNPICKGCLSCSKDNGCSRCQQKLFFFLRREGMRQYGECLHSCPSGYYGHRAPDMNRCARCRIENCDSCFSKDFCTKCKVGFYLHRGRCFDECPDGFAPLEETMECVEGCEVGHWSEWGTCSRNNRTCGFKWGLETRTRQIVKKPVKDTIPCPTIAESRRCKMTMRHCPGGKRTPKAKEKRNKKKKRKLIERAQEQHSVFLATDRANQ
notes: not shown: human Fc region
B5: anti-RSPO1 monoclonal antibody 89M5 (hybridoma ATCC PTA-11970) (antibody, mouse IgG1, kappa, V domains shown)
VH: EVQLQQSGPELVKPGASVKISCKTSGYTFTGYTMHWVRQSHGKTLEWIGGINPNNGGTTYNQNFKGKATLTVEKSSTTAYLELRSLTSEDSALYYCARKEFSDGYYFFAYWGQGTLVTVSS
VL: DIVMTQSHKFMSTSVGDRVNITCKASQDVIFAVAWYQQKPGQSPKLLIYWASTRHTGVPDRFTGSVSGTDYTLTISSVQAEDLALYYCQQHYSTPWTFGGGTKLEIKR
notes: Murine monoclonal antibody; also called parental 89M5 antibody
B6: anti-RSPO1 monoclonal antibody 89M4 (antibody, V domains shown)
VH: B5 VH with S121A
VL: DIVMTQSHKFMSTSVGDRVNITCKASQDVIFAVAWYQQKPGQSPKLLIYWASTRHTGVPDRFTGSVSGTDYTLTISSVQAEDLALYYCQQHYSTPWTFGGGTKLEIK
B7: anti-RSPO1 monoclonal antibody 89M25 (antibody, V domains shown)
VH: B5 VH with S121A
VL: B6 VL
B8: anti-RSPO2 monoclonal antibody 130M23 (hybridoma ATCC PTA-12021) (antibody, mouse IgG1, kappa, V domains shown)
VH: EVKLVESGGGLVKPGGSLKFSCAASGFSFSSYAMSWVRQTPEKRLEWVASISSGGSTYYPDSVKGRFTISRDNVRNILYLQMSSLRSEDTAMYFCARGGDPGVYNGDYEDAMDYWGQGTSVTVSS
VL: B5 VL with N20S, I30S, F31S, G64N, V66G
notes: Murine monoclonal antibody; also called parental 130M23 antibody
B9: recombinant human RSPO3-Fc fusion protein (Fc fusion)
chain: QNASRGRRQRRMHPNVSQGCQGGCATCSDYNGCLSCKPRLFFALERIGMKQIGVCLSSCPSGYYGTRYPDINKCTKCKADCDTCFNKNFCTKCKSGFYLHLGKCLDNCPEGLEANNHTMECVSIVHCEVSEWNPWSPCTKKGKTCGFKRGTETRVREIIQHPSAKGNLCPPTNETRKCTVQRKKCQKGERGKKGRERKRKKPNKGESKEAIPDSKSLESSKEIPEQRENKQQQKKRKVQDKQKSVSVSTVH
notes: not shown: human Fc region
B10: recombinant human RSPO1-Fc fusion protein (Fc fusion)
chain: SRGIKGKRQRRISAEGSQACAKGCELCSEVNGCLKCSPKLFILLERNDIRQVGVCLPSCPPGYFDARNPDMNKCIKCKIEHCEACFSHNFCTKCKEGLYLHKGRCYPACPEGSSAANGTMECSSPAQCEMSEWSPWGPCSKKQQLCGFRRGSEERTRRVLHAPVGDHAACSDTKETRRCTVRRVPCPEGQKRRKGGQGRRENANRNLARKESKEAGAGSRRRKGQQQQQQQGTVGPLTSAGPA
notes: not shown: human Fc region

Assay [1] deals with T1, soluble LGR5-Fc fusion protein (human, UniProt O75473 22-564).
T1 construct: range 22-564; Expressed in insect cells with baculovirus, purified on protein A; not shown: human Fc
T1 sequence (looked up): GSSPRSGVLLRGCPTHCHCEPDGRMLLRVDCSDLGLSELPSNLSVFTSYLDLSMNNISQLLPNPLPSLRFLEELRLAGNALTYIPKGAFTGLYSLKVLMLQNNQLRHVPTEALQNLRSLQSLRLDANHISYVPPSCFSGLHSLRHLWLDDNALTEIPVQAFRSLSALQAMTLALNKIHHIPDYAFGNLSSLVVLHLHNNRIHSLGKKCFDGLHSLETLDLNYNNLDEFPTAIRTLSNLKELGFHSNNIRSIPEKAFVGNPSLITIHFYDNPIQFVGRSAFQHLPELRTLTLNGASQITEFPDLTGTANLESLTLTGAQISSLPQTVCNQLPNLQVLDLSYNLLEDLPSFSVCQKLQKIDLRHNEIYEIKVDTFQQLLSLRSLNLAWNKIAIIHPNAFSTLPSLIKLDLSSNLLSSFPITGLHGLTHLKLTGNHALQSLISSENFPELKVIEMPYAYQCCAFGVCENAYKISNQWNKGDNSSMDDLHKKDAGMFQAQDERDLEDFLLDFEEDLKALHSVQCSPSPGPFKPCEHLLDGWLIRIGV
Briefly: SPR (Biacore 2000), RSPO-Fc immobilized on CM5 chip, soluble LGR5-Fc injected 100 nM to 0.78 nM. The method, then:
Binding affinities between RSPO proteins and LGR5 were analyzed by surface plasmon resonance. A soluble LGR5-Fc construct was generated using standard recombinant DNA techniques. Specifically, amino acids 1-564 of human LGR5 were ligated in frame to human Fc and the recombinant LGR5-Fc fusion protein was expressed in insect cells using baculovirus. The LGR5-Fc fusion protein was purified from the insect medium using protein A chromatography. Cleavage of the LGR5 signal sequence results in a mature LGR5-Fc fusion protein containing amino acids 22-564 of LGR5. Recombinant RSPO1-Fc, RSPO2-Fc, RSPO3-Fc and RSPO4-Fc fusion proteins were immobilized on CM5 chips using standard amine-based chemistry (NHS/EDC). Two-fold dilutions of soluble LGR5-Fc were injected over the chip surface (100 nM to 0.78 nM). Kinetic data were collected over time using a Biacore 2000 system from Biacore Life Sciences (GE Healthcare) and the data were fit using the simultaneous global fit equation to yield affinity constants (KD values) for each RSPO protein (Table 3).
Background: Surface plasmon resonance follows binding to a sensor surface in real time, without labels.

Assay [2] has as its target B4. Briefly: SPR (Biacore 2000), human RSPO2-Fc immobilized on CM5 chip, antibody injected 100 nM to 0.78 nM. The procedure: The KD of h130M23-H1L2 and h130M23-H1L6 were determined using a Biacore 2000 system from Biacore LifeSciences (GE Healthcare). Recombinant human RSPO2-Fc protein was immobilized on CM5 chips using standard amine-based chemistry (NHS/EDC). The antibodies were serially diluted 2-fold from 100 nM to 0.78 nM in HBS-P (0.01M HEPES pH7.4, 0.15M NaCl, 0.005% v/v Surfactant P20) and were injected over the chip surface. Kinetic data were collected over time and were fit using the simultaneous global fit equation to yield affinity constants (KD values) for each antibody.

The target of assay [3] is B10. Briefly: SPR (Biacore 2000), RSPO1-Fc immobilized on CM5 chip, antibody injected 100 nM to 0.78 nM. The method, then:
(§1) The KDs of antibodies 89M4, 89M5, 89M7 and 89M25 were determined using a Biacore 2000 system from Biacore LifeSciences (GE Healthcare). Recombinant human RSPO1-Fc or mouse RSPO1-Fc proteins were immobilized on CM5 chips using standard amine-based chemistry (NHS/EDC). The antibodies were serially diluted 2-fold from 100 nM to 0.78 nM in HBS-P (0.01M HEPES pH7.4, 0.15M NaCl, 0.005% v/v Surfactant P20) and were injected over the chip surface. Kinetic data were collected over time and were fit using the simultaneous global fit equation to yield affinity constants (KD values) for each antibody.

The target in assay [4] is T2, recombinant mouse RSPO1-Fc protein (mouse, UniProt Q9Z132 21-265, limits assumed).
T2 construct: Construct not described; not shown: Fc; not described
The description is as above. The procedure:
as §1

Assay [5] addresses Figure 9A construct 1: Positive charge, furin1 (human) (UniProt Q2MKA7). Briefly: FACS, HEK-293 cells transfected with the FLAG-RSPO1 portion-CD4TM construct in Figure 9A; anti-RSPO1 antibody 89M5, PE-conjugated secondary antibody. (In general: A flow cytometer gives signals particle by particle.)
Assay [6] concerns the target Figure 9A construct 2: Positive charge, furin1, furin2 (human) (UniProt Q2MKA7). The assay is described as above.
In assay [7] the target is Figure 9A construct 3: Positive charge, furin1, furin2, cysteine, Thrombospondin (human) (UniProt Q2MKA7). The assay is described as above.
For assay [8], the target named is Figure 9A construct 4: Positive charge, furin1, furin2, cysteine, Thrombospondin, Positive charge (human) (UniProt Q2MKA7). The description is as above.
For assay [9], the target named is Figure 9A construct 5: furin1, furin2, cysteine (human) (UniProt Q2MKA7). The assay is described as above.
Assay [10] deals with B4. Briefly: SPR (Biacore 2000), RSPO2-Fc immobilized on CM5 chip, antibody injected 100 nM to 0.78 nM. The method, then: (§2) The KD of 130M23 was determined using a Biacore 2000 system from Biacore LifeSciences (GE Healthcare). Recombinant human RSPO2-Fc or mouse RSPO2-Fc proteins were immobilized on CM5 chips using standard amine-based chemistry (NHS/EDC). The antibodies were serially diluted 2-fold from 100 nM to 0.78 nM in HBS-P (0.01M HEPES pH7.4, 0.15M NaCl, 0.005% v/v Surfactant P20) and were injected over the chip surface. Kinetic data were collected over time and were fit using the simultaneous global fit equation to yield affinity constants (KD values) for each antibody.

The target in assay [11] is T3, recombinant mouse RSPO2-Fc protein (mouse, UniProt Q8BFU0 24-243, limits assumed).
T3 construct: Construct not described; not shown: Fc; not described
Described as above. The procedure: as §2

Numbering of substitutions follows the chain as printed.

Sequence of Figure 9A construct 5: furin1, furin2, cysteine (human) (Q2MKA7 other isoform, or with tags, fused parts or gaps): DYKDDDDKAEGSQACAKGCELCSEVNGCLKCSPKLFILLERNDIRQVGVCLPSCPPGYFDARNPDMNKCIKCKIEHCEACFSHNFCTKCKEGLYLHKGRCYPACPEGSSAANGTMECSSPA
Sequence of Figure 9A construct 3: Positive charge, furin1, furin2, cysteine, Thrombospondin (human) (Q2MKA7 other isoform, or with tags, fused parts or gaps): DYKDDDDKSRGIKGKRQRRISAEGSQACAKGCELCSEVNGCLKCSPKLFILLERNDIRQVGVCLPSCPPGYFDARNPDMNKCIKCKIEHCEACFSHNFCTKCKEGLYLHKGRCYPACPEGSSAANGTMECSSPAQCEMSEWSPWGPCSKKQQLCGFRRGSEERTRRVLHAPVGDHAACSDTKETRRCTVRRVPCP
T3 sequence (Q8BFU0 24-243 limits assumed): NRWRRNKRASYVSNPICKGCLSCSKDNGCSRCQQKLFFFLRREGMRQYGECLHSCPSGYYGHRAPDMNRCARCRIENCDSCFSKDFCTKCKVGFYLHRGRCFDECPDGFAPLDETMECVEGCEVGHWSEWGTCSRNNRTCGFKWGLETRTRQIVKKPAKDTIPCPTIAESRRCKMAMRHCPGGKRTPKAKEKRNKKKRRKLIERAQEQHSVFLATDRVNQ
Sequence of Figure 9A construct 1: Positive charge, furin1 (human) (Q2MKA7 other isoform, or with tags, fused parts or gaps): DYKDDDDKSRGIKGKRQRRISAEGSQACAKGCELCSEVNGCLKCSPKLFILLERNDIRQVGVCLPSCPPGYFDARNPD
Sequence of Figure 9A construct 2: Positive charge, furin1, furin2 (human) (Q2MKA7 other isoform, or with tags, fused parts or gaps): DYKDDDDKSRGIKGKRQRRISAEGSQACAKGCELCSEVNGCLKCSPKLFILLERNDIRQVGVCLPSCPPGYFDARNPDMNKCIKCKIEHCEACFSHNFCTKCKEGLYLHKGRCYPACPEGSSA

For B1, binding in assay [1] was characterised by a dissociation constant (Kd) of 73 nM. Regarding B2, the Kd (usually a measure of binding affinity in units of concentration) in assay [2] is 0.13 nM. In the case of B3, the Kd in assay [2] amounted to 0.15 nM. For the molecule B4, in assay [1], the Kd came to 14 nM. As to B5, the dissociation constant Kd in assay [3] and in assay [4] was < 0.1 nM each time. In addition, the MFI in [5] amounted to 5.42; in assay [6], 15.5; in assay [7], 20.1; in assay [8], 10.3; in [9], 406. Take B6: the Kd in assay [3] and in assay [4] was < 0.1 nM throughout. B7: the Kd in assay [3] and in assay [4] was < 0.1 nM throughout.

On to B8, for which the figures for the Kd in [10] and in [11] were 0.14 nM and 0.35 nM, respectively.

Turning to B9, the Kd in [1] was < 1 nM. In turn, B10 showed a Kd in assay [1] of 110 nM.
